# Experimental data published in a protein production outcome set (Wang et al. 2014).
# Assay: label from the status in PepcDB records
row,Sequence,protein production
1,MEIRMSKSSSKPVLVTCGLPYANGKAHIGHLRTYVPADIYARSLKKEGREVTFVCGSDTHGTPIVVNAEELGITPTELVEIYHKHFDETFKQLGIYFDAFGTTDDPENHNRTHDIVSRLIEKGYVYPKIIEIAYCPACNRFLPDRYVEGACPHCGETARGDECDQGCGKHLEPGELQNPVCTICGGPAEYRQQEHFFFKLSEFSNYLMDYLSKDLGGTTNAINYARGWVKQGLTDWCITRNLEWGVKFPGHEDLVVYVWVDAPIGYIAFTEEWAAQAGDSWEKFWKGDGEIVHFIGGDITYHHCIFWPAMLKGADYSVPTAVVASGMVKIEDRKFSKTRGYVVWVGEDYLDHGFHPDLLRYYLASYTSHTKELNFSWRVLQEKINAELVAVLGNFLYRTMLFAFKNYGEVPEGEVEPEIRKEIEKALVEVKAAMEEYEFKKAVDSAMALASFGNTYFQSHEPWKLIKEDRDACGQVVYNCLHLAKALSLIFEPVIPQTMEKAWKGLGHESDIHAALYEETLVPLKAGTKLAKPEILFTKLEDDRIGEMEEIANQRVAAANAKRNGVKGGEKEPSKSEGMGPSEASKASEKTVDVATAEEKVQVETLPVIDYEDFAKLDIRVGKVLLVEPVKKSKKLLRIEVDIGEEKPRQLVAGMASYYTPEELVGKSVIVLANLKPAKLCGVESNGMMLAADDGGAIVAALMPDKEIKSGSRIR,failed
2,MEIRTFLERALKEDLGHGDLFERVLEKDFKATAFVRAKQEGVFSGEKYALELLEMTGIECVQTIKDKERFKPKDALMEIRGDFSMLLKVERTLLNLLQHSSGIATLTSRFVEALNSHKVRLLDTRKTRPLLRIFEKYSVLNGGASNHRLGLDDALMLKDTHLRHVKDLKSFLTHARKNLPFTAKIEIECESFEEAKNAMNAGADIVMCDNLSVLETKEIAAYRDAHYPFVLLEASGNISLESINAYAKSGVDAISVGALIHQATFIDMHMKMA,failed
3,MEISEQESVLEVKKRLGQFLQIPTSSITLFVSCWELIDGLDIEDYPIISHGTRIDLTVTPLFTAPSFIHAAVRKIHVTVKFPSKQFTVEVDRTETVSSLKDKIHIVENTPIKRMQLYYSGIELADDYRNLNEYGITEFSEIVVFLKSINRAKDVAPTSSSLFNGARIPVEIKDTCTISEMREGLQANKTLPRDEYIFVHKQRIMRENCSLRWHGVENGDTLFVFKGSISREGF,failed
4,MEITLNSGFKMPIIGLGVWRMEKEELRDLIIDAIKIGYRHLDCAANYKNEAEVGEALTEAFTTGLVKREDLFITTKLWSSDHGHVIEACKDSLKKLQLDYLDLFLVHIPIATKHTGIGTTDSALGDDGVLDIDTTISLETTWHDMEKLVSMGLVRSIGISNYDVFLTRDCLAYSKIKPAVNQIETHPYFQRDSLVKFCQKHGICVTAHTPLGGATANAEWFGTVSCLDDPVLKDVAEKYKQTVAQIVLRWGIQRNTVVIPKTSKPERLEENFQVFDFQLSKEDMEVIKSMERNYRTHQTAKFWGIELYA,not failed
5,MEITLSKSLLIAVVLAPLLGSIIAGLFGRQVGRKGAQYVTILGVAVSCVLSCVTLYQLVEQGASPFNQNLYTFFDVGNYSAHVGFMVDRLTAMMMVVVTFVSLLVHIYTIGYMEEDPGYQRFFSYISLFTFSMLTLVMSNNFLQLFFGWEAVGLVSYLLIGFWFKRPTAVFANMKAFLVNRVGDFGFILGIAGVLLWFGSLDYSTVFANATTMAGAKVQLFAGHEWSVMTLICICLFIGAMGKSAQVPLHVWLPDSMEGPTPISALIHAATMVTAGIFMVARMSPLFELSETALNFILFIGATTAFFTGLIGIVQNDIKRVVAYSTLSQLGYMTVALGVSAYSAAVFHLMTHAFFKALLFLAAGSVIIGMHHEQDMRKMGGLRKYMKVTYWTSVIGTLALVGTPFFSGFYSKDTIIEAAAHHAHESHNWVATYGYWAVLGGVLVTSFYSFRLLFLTFHGKERFRDAHAHDVHSHHDSAHTDAEAQVHSHDAHAHDDHGHGHHGAHEPHESKWVVTLPLVLLAIPSIAIGFFTIGPMLFGTDWQGHHAVHAMKGQAVSFFTGIVDFYDPARDTVGALAEEFHGPVAFALHGMLAAPFFLTVAGLLLAALFYLWKPELATKSRKTFAPIVWLLENKYGFDKLWINGFAGGGVVLGKASRAVDTHVVDGAVVNGSARLIDLAANLLRRTQSGFLYHYAFAMIIGLIALLAVLMHFWR,failed
6,MEKAILITFLIATTSMVYQTIGQEEEISPISPESLAYEPAAAYEYDHELLSHMTTRRIKFLQDCSDKMSSKCNVEMTEGLIDDKPVSEDCCVNFLKIGRECHEGLMTFVFATYELKDVASAILPRSKRMWNKCVETTAAKIGAPLAFET,failed
7,MEKEIKEKNLPLELTLVEASPRVGGKIQTVKKDGYIIERGPDSFLERKKSAPQLVKDLGLEHLLVNNATGQSYVLVNRTLHPMPKGAVMGIPTKIAPFVSTGLFSLSGKARAAMDFILPASKTKDDQSLGEFFRRRVGDEVVENLIEPLLSGIYAGDIDKLSLMSTFPQFYQTEQKHRSLILGMKKTRPQGSGQQLTAKKQGQFQTLSTGLQTLVEEIEKQLKLTKVYKGTKVTKLSHSGSCYSLELDNGVTLDADSVIVTAPHKAAAGMLSELPAISHLKNMHSTSVANVALGFPEGSVQMEHEGTGFVISRNSDFAITACTWTNKKWPHAAPEGKTLLRAYVGKAGDESIVDLSDNDIINIVLEDLKKVMNINGEPEMTCVTRWHESMPQYHVGHKQRIKELREALASAYPGVYMTGASFEGVGIPDCIDQGKAAVSDALTYLFS,failed
8,MEKEMARLAAFDMDGTLLMPDHHLGEKTLSTLARLRERDITLTFATGRHALEMQHILGALSLDAYLITGNGTRVHSLEGELLHRDDLPADVAELVLYQQWDTRASMHIFNDDGWFTGKENPALLQAFVYSGFRYQIIDVKKMPLGSVTKICFCGDHDDLTRLQIQLYEALGERAHLCFSATDCLEVLPVGCNKGAALTVLTQHLGLSLRDCMAFGDAMNDREMLGSVGSGFIMGNAMPQLRAELPHLPVIGHCRNQAVSHYLTHWLDYPHLPYSPE,failed
9,MEKGTLVEFRVQGDRRLGVVDRPDGKTRWFVVDERGQSHSLAPRQITYTVNGNTYKPSEIDRFLEEVKPYLDPSSLEVAWELLVEDGETVTPSQMANLLFSESNSAPSYAAHCLLSDDKLYFKQKGDAYEPRTAAQVADRKHQIEVEALKARGQQEFLTRVEQALQGEAVEWQRHDRQRLEGLEKYGTLLADIVKVGLNYDSLARAYPPPAPVLETMNMLGRPATPQGAFQLLVDLGWWSATENLFLRRSSIPVQFPSKVLEVAQQRLDFPPTDLDTNRLDLTHLKVYTVDDESTTEIDDGLSWEKLPDDRERLWVHIADPTRYLAPEDDLDLEARKRGSTVYLPTGMIPMFPEVLATGPMSLVQGRVCCALSFGVVLDGTGAVQDFTIHPSLIKPTYRLTYEDVDEMLELGVQAEPEIAAIATWATKRKSWRYNQGAISINMPEAMIKVKNDDISIDILDDSRSRQLVAEMMILAGEVAARYGQVHNIPLPFRGQPQPELPPEDELLRLPAGFVRACAMRRCMPKSEMSITPVRHAGLGLDTYTQATSPIRRYSDLLTHFQLKAHLRGEVPPFTAEELKEVMMTVTSTTQELTMVERQTNRYWALEYLRRHPEEIWQVTVLMWLREDSNLALILLEDLGLQLPMVFKRSVRLGEQVLVKVSISDPQKDVIQFQEIIYQEAQTAAN,failed
10,MEKGVGFEKDMKTVSDGFVGGFFPVSTTKIAWKSRKRSALLNLDKAPEAVTEVTPEKNEITAMDTEKVGEPMTTTPLLSEKRKALFEPLEPITNLNGKRPTAADSLLPPPDFETANYPKGWLIGKKRKLVNVDVVESMRRIAVQEMNRKDREIDGLNEQLEEDSRCLEHLQLQLLQERSKRTEIERENTMLKEQVDMLVNMIQEDDEEGAEEP,failed
11,MEKISDLIECIAYEKNLPKEMISKVIQGCLLKMAQNELDPLARYLVVEENKQLQLIQLVEVLEDGDERLVNDPSKYISLSKAKEMDPSVKIKDELSYSLSLESMKQGAINRLFKDLQYQLEKALEDSHFEAFQKRLNSVLMGQVILVDHNQNTFIEIEQQFQGVLSMRHRIKGESFKVGDSIKAVLTQVKRTKKGLLLELSRTTPKMLEALLELEVPEIKDKEIEIIHCARIPGNRAKVSFFSHNARIDPIGAAVGVKGVRINAISNELNKENIDCIEYSNVPEIYITLALAPAKILSVEIKKIPIEELNAEEKESIQERFIVNNHLQKAKVRLLDIEKSKAIGKGGVNVCLASMLTGYHIEFETIPSVKENAENESEKETPKVGVEALESLFKNLEHHHHHH,not failed
12,MEKKIVYFNKPGRENTEETLRLAVERAKELGIKHLVVASSYGDTAMKALEMAEGLEVVVVTYHTGFVREGENTMPPEVEEELRKRGAKIVRQSHILSGLERSISRKLGGVSRTEAIAEALRSLFGHGLKVCVEITIMAADSGAIPIEEVVAVGGRSRGADTAVVIRPAHMNNFFDAEIKEIICMPRNKR,not failed
13,MEKKVHYKMYKAGKKWVFVMLSTVALTGIMVMSGNIAKADAVAQSSTEQVAKIDTTSATTTSTQATAQVEKATNNVNESNAAQTSATTTTEQSSVNAGATSSSQNNKQATTTSVAASQNTSVANKDQVSSTQSSTTQNSEEPKVETPVNTADNASQKNVNGNWYLVDNNTGKNLTGFQEIKYQNKVVYYAPSNAQMQYGWQDINNNRYYFDTFDGAMTTGQKNINGNWYMFDAQGVLQTGFQRIESQNKTVYYSEDKDKLGQMQYGQKNIKGNWYNFDTYDGAMKTGFVTIPSQNKTVYYSEDKAKLGQMQYGKTKVNGKTYYFDTYDGAMKKGLTNINGNYYYFDNSGVMATNQKNINGNWYMFNDQGIMQTGFVHIPSQGKTVYYSKDKDKLGQMLYGQKNINGRWYNFDTYDGAMKTGFVYIPSQNKTVYYDENQSTLGQMKYGFQNINGKTYYLDTFDGSMKTGQKNINGNWYMFDDKGVMKVGFVTIPSQNKTVYYSEDKAKLGQMQYGKTGIKGKTYYFDTFDGAMKTGVFYNKETGTLQYYGNNGQMNYGNVVINGKVYAFDAAGNYLGKGNVTIDGHDYYLGNNNQVLVGFQKISNNTYYYNKDNGQKEYGQKNIDGSWYMFDDKTGIMKTGFVTIPSQNKTVYYGNNGQMQYGQRNIDGHWYMFDTYNGAMKTGLVYIPEQNKTVYYGSNGQMQYGVFRVGKITYTADHISGAIIGVYNDAEVIGQNPELPTGCEITAVTMMLRYAGANINKIQLANEMPRSNNGDYGFVGNPFSVTGWWVFPTGVAPVVNKHLGHSQVMTGASLESIKNKLLNGHLVVAWVANMNGFVNHAIALTGYNGNTLYYNNPWTARKESMSVSSFYTHWNADKQRALSY,failed
14,MEKLKSLIPEDLLQTVKSSSVDDLLSTSSSLLRLFLGLPQFHQAVSELANPELGCCGKNEETSLDLKRRGNHCFRSRDFDEALRLYSKALRVAPLDAIDGDKSLLASLFLNRANVLHNLGLLKESLRDCHRALRIDPYYAKAWYRRGKLNTLLGNYKDAFRDITVSMSLESSLVGKKQLQNELKAIPDYQNNQTLEHDEYRPSNDAGVDHLPSVQMEVKLRCVSTKEKGRGMVSECDIEEASVIHVEEPFSVVISKSCRETHCHFCLNELPADTVPCPSCSIPVYCSESCQIQSGGMLSTNEMDKHHIFQKLPDDIVEHIKGVTSADIYYFATDLIQEHQHECRGANWPAVLPSDAVLAGRIIMKLINQGKAATDLSNLQEILELSHTYSKMNPENKLELHLLSIVLIWCLSKSSCPNLSVCEASVTQTIILLSQIKVNSIAVARMKSSGDSFKCLPSGNISTKEPIQSLEQIRVGQALYKTGSLFNHSCKPNIHLYFLSRGLIMQTTEFVPTGCPLELSYGPEVGKWDCKNRIRFLEEEYFFHCRCRGCAQINISDLVINGYGCVNTNCTGVVLDSNVATCESEKLNHFFTAPRNVDQQVQMREKVYADVGEVASSLLSKPSGSLHIEPEICLKCGSRCDIENSHAEVNKAWNHMRRVEELMNSGRANYSVLSDCSRSIAVLRTFLHMYNKDIADAEDKVAQACYLAGELVDARKHCEASIKILKRLYEDEHVVIGNEMVKLASIQLASGDSSGAWDTTKRSSQIFSKYYGSHAETLFSYLPCLKQETAKAVNLSTS,failed
15,MEKLSAIKKPDINVADAWEQYWNKTLVNSTPVLWDANVERAVVVDLPRFELLFNPELPLIDFACGNGTQTKFLSQFFPRVIGLDVSKSALEIAAKENTAANISYRLLDGLVPEQAAQIHSEIGDANIYMRTGFHHIPVEKRELLGQSLRILLGKQGAMYLIELGTGCIDFFNSLLEKYGQLPYELLLVMEHGIRPGIFTAEDIELYFPDFEILSQGEGLFQSIHKLPDGNYATPPAFWAVIKHR,not failed
